{"source": "paper PMC8834437", "about": "“Physical Interaction between Embryonic Stem Cell-Expressed Ras (ERas) and Arginase-1 in Quiescent Hepatic Stellate Cells” (Cells, 2022)", "binders": {"B1": {"name": "GST-rnNex (rat ERas N-terminal extension, aa 1-38) (domain or fragment, UniProt D3ZTE4 1-38, looked up)", "chain": "MALPTKSSILDLSPGTQCSRSPEESHEAWAQCKDAGRQ", "notes": "Embryonic stem cell-expressed Ras (ERas), rat, D3ZTE4, N-terminal extension (Nex) aa 1-38; also called ERas rnNex; GST-Nex of rat ERas"}, "B2": {"name": "GST-hsFL (human ERas full length, aa 1-233) (natural protein, UniProt Q7Z444 1-233, looked up)", "chain": "MELPTKPGTFDLGLATWSPSFQGETHRAQARRRDVGRQLPEYKAVVVGASGVGKSALTIQLNHQCFVEDHDPTIQDSYWKELTLDSGDCILNVLDTAGQAIHRALRDQCLAVCDGVLGVFALDDPSSLIQLQQIWATWGPHPAQPLVLVGNKCDLVTTAGDAHAAAAALAHSWGAHFVETSAKTRQGVEEAFSLLVHEIQRVQEAMAKEPMARSCREKTRHQKATCHCGCSVA", "notes": "Embryonic stem cell-expressed Ras (ERas), human, Q7Z444, FL aa 1-233; also called ERas hsFL; GST-FL of human ERas"}, "B3": {"name": "GST-hsNex (human ERas N-terminal extension, aa 1-38) (domain or fragment, UniProt Q7Z444 1-38, looked up)", "chain": "MELPTKPGTFDLGLATWSPSFQGETHRAQARRRDVGRQ", "notes": "Embryonic stem cell-expressed Ras (ERas), human, Q7Z444, N-terminal extension (Nex) aa 1-38; Cloned into pMal-c5X-His or pGEX-4T1-N-TEV; used as GST fusion; also called ERas hsNex; GST-Nex of human ERas"}, "B4": {"name": "GST-rnFL (rat ERas full length, aa 1-227) (natural protein, UniProt D3ZTE4 1-227, looked up)", "chain": "MALPTKSSILDLSPGTQCSRSPEESHEAWAQCKDAGRQLPEYKAVVVGASGVGKSALTIQMTHHCFVKDHDPTIQDSYWKEVALDNGGYILNVLDTAGQDSHRALRDQCLAAGDGVLGVFALDDPSSLDQLQQICSTWNPHHKQPLVLVGNKSDLVSSAGDAHTAAAVLAHKLGAPLVKTSAKTRQGVEEAFALLVHEIQRAQEAVAESSKKTRHHKAVCSCGCSVA", "notes": "Embryonic stem cell-expressed Ras (ERas), rat, D3ZTE4, FL aa 1-227; also called GST-FL of rat ERas"}}, "key": {"[1]": {"biological_target": "T1, purified arginase 1 (ARG1; aa 1-322) (UniProt P05089 1-322)", "T1 construct": "Arginase 1 (ARG1), P05089, aa 1-322; Named MBP-ARG1 only for the SPR; also called MBP-ARG1; purified ARG1", "T1 sequence (looked up)": "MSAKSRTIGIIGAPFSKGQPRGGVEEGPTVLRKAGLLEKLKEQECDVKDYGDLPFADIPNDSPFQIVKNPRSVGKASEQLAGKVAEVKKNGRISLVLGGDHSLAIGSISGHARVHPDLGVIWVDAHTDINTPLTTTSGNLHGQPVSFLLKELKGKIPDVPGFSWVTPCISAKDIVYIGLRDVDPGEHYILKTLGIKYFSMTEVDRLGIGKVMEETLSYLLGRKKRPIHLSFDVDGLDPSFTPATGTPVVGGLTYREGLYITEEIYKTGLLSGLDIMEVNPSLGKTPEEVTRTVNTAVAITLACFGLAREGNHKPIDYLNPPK", "assay": "pull-down; GST-fusion proteins immobilized on GSH agarose beads, mixed with purified ARG1, 1 h at 4 °C", "details": "both partners purified"}, "[2]": {"biological_target": "T1, purified arginase 1 (ARG1; aa 1-322)", "assay": "SPR; Biacore X100, CM5 chip, GST-hsNex (10 µM) captured by immobilized anti-GST antibody, MBP-ARG1 0.5-20 µM injected, 25 °C, 10 mM HEPES pH 7.4, 150 mM NaCl, 0.05% P20, Langmuir 1:1 model", "details": "both partners purified"}}}
{"binder": "B1", "values": [{"measurement": "binding result", "setting": "[1]", "result": "binds"}]}
{"binder": "B2", "values": [{"measurement": "binding result", "setting": "[1]", "result": "binds"}]}
{"binder": "B3", "values": [{"measurement": "Kd", "setting": "[2]", "result": 2100, "unit": "nM"}]}
{"binder": "B4", "values": [{"measurement": "binding result", "setting": "[1]", "result": "binds"}]}
